Experimental findings from patent US11827690B2, “ApoC-II mimetic peptides” (THE UNITED STATES OF AMERICA, as represented by the …, priority 2017, dated 2023) are described below.

In assay [1] the target is T1, LPL inhibited by apoC-III (Bos taurus, UniProt P11151).
T1 sequence (P11151 29-478): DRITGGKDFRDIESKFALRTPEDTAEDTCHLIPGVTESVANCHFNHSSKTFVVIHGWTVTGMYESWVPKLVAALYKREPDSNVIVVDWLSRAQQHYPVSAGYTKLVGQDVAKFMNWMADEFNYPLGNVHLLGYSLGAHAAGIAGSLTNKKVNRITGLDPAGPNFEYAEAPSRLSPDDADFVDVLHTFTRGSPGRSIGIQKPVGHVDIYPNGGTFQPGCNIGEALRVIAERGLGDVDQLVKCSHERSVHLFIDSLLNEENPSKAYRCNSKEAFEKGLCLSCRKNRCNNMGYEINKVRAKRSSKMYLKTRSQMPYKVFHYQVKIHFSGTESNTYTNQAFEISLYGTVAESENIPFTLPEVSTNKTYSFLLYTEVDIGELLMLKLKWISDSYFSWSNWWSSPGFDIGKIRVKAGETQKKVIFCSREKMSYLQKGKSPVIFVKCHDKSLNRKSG
Nature of the assay: LPL activation assay using apoC-III transgenic mice plasma as substrate. The format is biochemical. On the set-up: host or cells: apoC-III comes with the plasma of apoC-III transgenic C57Bl/6 mice. The note with it: all three transgenic mice plasma samples, FIG. 33. The method, then:
(§1) LPL activity assay: 10 μL of Intralipid, human plasma sample, or mouse plasma sample was added in each well using repeater pipette. 10 μL (or 15 μL in the wells with no LPL control) of PBS and 10 μL of 1% BSA was added in each well using repeater pipette. 10 μL of peptides were added to corresponding wells in vertical triplicates (lowest concentration is on a left, highest is on the right). The plate was spun down at 1000 RPM for 10 seconds to mix and to remove the solutions from the wall of each well. The plate was put on ice and 5 μL of LPL was added using repeater pipette. The plate was spun down again at 1000 RPM for 10 seconds. The plate was covered and put back on ice for an incubation of 30 min. The plate was then moved to 37° C. and incubated for 1 hour.
(§2) Free fatty acids (NEFA) assay: 45 μL of 5 nmoL standard and 0 nmoL control (0.2% BSA) were added to corresponding wells. 225 μL of reagent A was added in each well using the reagent tray and 12-channel pipette. The plate was incubated for 10 min before 75 μL of reagent B was added to each well using the reagent tray and 12-channel pipette. The plate was not covered due to the high volume. The absorbance at 550 nm and 660 nm was measured.
LPL assay was performed using Intralipid, high TG human plasma (1:50 dilution), or apoC-III transgenic mouse plasma (1:50 dilution). […]

Assay [2] relates to lipoproteins of human serum. Nature of the assay: incubation of human serum with exogenous apoC-II-a. Format: binding. The following applies: doses comparable to that achieved in vivo in mice.
In assay [3] the target is T1, LPL inhibited by apoC-III. Nature of the assay: LPL activation assay with Intralipid as substrate and recombinant apoC-III as an inhibitor. The format is biochemical. The following applies: Intralipid substrate, FIG. 31. As to the method:
as §1, §2
LPL assay was performed using Intralipid, high TG human plasma (1:50 dilution), or apoC-III transgenic mouse plasma (1:50 dilution). When Intralipid was used as a substrate, 25 or 50 μM recombinant ApoC-III was added as an inhibitor. When the high TG human plasma was used as a substrate, 25 or 50 μM recombinant ApoC-III was added as an inhibitor with or without pre-incubation at 37° C. for 1 hour. An apoC-II mimetic peptide was added at various concentrations.

Another assay concerns the target T2, bovine LPL (Bos taurus, UniProt P11151).
T2 sequence (P11151 29-478): T1 sequence (P11151 29-478)
Nature of the assay: in vitro LPL assay using hypertriglyceridemia patient sera as substrate. The format is biochemical. The note with it: patient sera TG about 1000 mg/dL to about 1700 mg/dL, FIGS. 15A-D. The essentials: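 Bovine LPL (diluted stock) added to Intralipid or human or mouse plasma with BSA and peptides in triplicate, held 30 min on ice, then incubated 1 hour at 37° C. Released free fatty acids measured by colorimetric NEFA assay at 550/660 nm against an oleic acid standard.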

Consider “DWLKAFYDKVAEKLKEAFPAMSTYTGIFTDQVLSVLKGEE (listed as Homo sapiens) [apoC-II-a, excluded from the claimed peptides]”, for which the “effect on inhibition by elevated expression of apoC-III” value in assay [1] is “overcame the inhibitory effect of elevated expression of apoC-III”; in assay [1] (listed as ApoC-II-a) it was “overcomes the inhibitory effect of elevated expression of apoC-III”. The “binding to lipoproteins and apolipoprotein displacement” value in assay [2] is “binds to all lipoproteins, including HDL and causes the displacement of apoC-I and apoC-III”. Besides, the “effect on inhibition of LPL by apoC-III” value in assay [3] was “overcame the inhibitory effect of apoC-III and facilitated lipolysis in a dose-dependent manner”; in assay [3] (listed as ApoC-II-a), “overcomes the inhibition by apoC-III”.
“DYLKEVFEKLRDLYEKFTPAVSTYTGIFTDQVLSVLKGEE [Delta6PV]”: the LPL activation result with bovine LPL is “activated LPL in vitro”.
